Patent publication US20140154248A1
Where two headings read alike, the source gives them in different places.

How the values were obtained:
Experiment in all cases: cell-based or functional assay
transferrin receptor = transferrin receptor (UniProt P02786)
human mesothelin (human) [1] = molecular target: human mesothelin (human) (UniProt Q13421)
human mesothelin (human) [2] = molecular target: human mesothelin (human) (UniProt Q13421); remark: listed apart in the source

UniProt Q13421, sequence (Q13421 other isoform, or with tags, fused parts or gaps): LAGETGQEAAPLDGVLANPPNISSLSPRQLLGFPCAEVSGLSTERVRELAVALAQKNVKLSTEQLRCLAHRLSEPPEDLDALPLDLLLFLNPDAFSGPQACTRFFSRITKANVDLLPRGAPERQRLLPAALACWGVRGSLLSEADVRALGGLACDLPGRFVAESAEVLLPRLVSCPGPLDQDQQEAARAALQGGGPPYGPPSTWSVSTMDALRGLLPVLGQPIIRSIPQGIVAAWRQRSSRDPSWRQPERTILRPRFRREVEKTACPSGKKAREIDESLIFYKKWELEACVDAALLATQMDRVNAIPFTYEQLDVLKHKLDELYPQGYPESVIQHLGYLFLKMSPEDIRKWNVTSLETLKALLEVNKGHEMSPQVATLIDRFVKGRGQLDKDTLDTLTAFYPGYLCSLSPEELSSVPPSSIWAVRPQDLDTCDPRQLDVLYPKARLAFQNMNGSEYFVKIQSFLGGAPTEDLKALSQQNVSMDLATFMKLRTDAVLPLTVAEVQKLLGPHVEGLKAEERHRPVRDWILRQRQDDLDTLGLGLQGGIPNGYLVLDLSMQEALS
UniProt P02786, sequence (P02786 whole entry): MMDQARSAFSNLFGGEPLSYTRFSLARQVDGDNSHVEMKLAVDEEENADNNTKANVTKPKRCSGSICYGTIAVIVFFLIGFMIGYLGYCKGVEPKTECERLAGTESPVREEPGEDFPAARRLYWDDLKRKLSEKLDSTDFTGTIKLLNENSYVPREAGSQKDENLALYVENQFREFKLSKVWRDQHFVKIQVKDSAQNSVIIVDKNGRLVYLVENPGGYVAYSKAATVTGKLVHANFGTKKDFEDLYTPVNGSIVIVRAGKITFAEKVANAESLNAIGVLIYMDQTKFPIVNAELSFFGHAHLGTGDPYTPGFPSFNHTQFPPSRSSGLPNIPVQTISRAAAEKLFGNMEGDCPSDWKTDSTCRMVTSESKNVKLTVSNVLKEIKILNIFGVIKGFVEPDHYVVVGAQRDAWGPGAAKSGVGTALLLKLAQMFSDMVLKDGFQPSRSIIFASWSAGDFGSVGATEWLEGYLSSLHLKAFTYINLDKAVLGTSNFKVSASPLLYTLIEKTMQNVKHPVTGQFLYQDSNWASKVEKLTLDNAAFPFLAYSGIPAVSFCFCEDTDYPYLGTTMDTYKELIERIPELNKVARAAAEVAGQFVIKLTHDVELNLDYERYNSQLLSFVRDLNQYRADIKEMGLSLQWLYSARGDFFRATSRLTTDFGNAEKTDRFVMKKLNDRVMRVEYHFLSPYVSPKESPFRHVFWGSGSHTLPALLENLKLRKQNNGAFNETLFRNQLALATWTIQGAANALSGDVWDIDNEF

Substance | reduction of viability of patient cells NCI-M-02 and NCI-M-03 (crystal violet) (transferrin receptor) | EC50 (ng/ml), cytotoxicity WST-8, A431/K5 cells (human mesothelin (human) [1]) | EC50 (ng/ml), cytotoxicity WST-8, A1847 cells (human mesothelin (human) [1]) | EC50 (ng/ml), cytotoxicity WST-8, HAY cells (human mesothelin (human) [1]) | EC50 (ng/ml), cytotoxicity WST-8, KB31 cells (human mesothelin (human) [1]) | EC50 (ng/ml), cytotoxicity WST-8, L55 cells (human mesothelin (human) [1]) | EC50 (ng/ml), cytotoxicity WST-8, M30 cells (human mesothelin (human) [1]) | EC50 (ng/ml), cytotoxicity WST-8, OVACR-8 cells (human mesothelin (human) [1]) | decrease in viability of patient cells NCI-M-02 and NCI-M-03 (crystal violet) (human mesothelin (human) [1]) | decrease in viability of patient cells NCI-M-16 and NCI-M-19 (crystal violet) (human mesothelin (human) [1]) | decrease in viability of patient cells NCI-M-02 and NCI-M-03 (crystal violet) (human mesothelin (human) [2])
HB21 (anti-transferrin receptor/PE38) | 90% |  |  |  |  |  |  |  |  |  | 
SS1P (SS1 (dsFv)-PE38) (from UniProt P11439 278-638) |  | 0.17 ng/mL | 4.59 ng/mL | 4.79 ng/mL | 0.47 ng/mL | 5.32 ng/mL | 2.56 ng/mL | 1.4 ng/mL | > 65% | > 75% | > 60%
